Experimental data published in PMC5784979, “Direct comparison of the four aldehyde oxidase enzymes present in mouse gives insight into their substrate specificities” (PLoS ONE, 2018).

B1: mAOX1 (Mus musculus) (protein)
chain: MDPIQLLFYVNGQKVVEKNVDPEMMLLPYLRKNLRLTGTKYGCGGGGCGACTVMISRYNPSTKAIRHHPVNACLTPICSLHGTAVTTVEGLGNTRTRLHPIQERIAKCHGTQCGFCTPGMVMSMYALLRNHPEPTLDQLTDALGGNLCRCTGYRPIIDACKTFCKASACCQSKENGVCCLDQEINGLAESQEEDKTSPELFSEEEFLPLDPTQELIFPPELMRIAEKQPPKTRVFYGERVTWISPVTLKELVEAKFKYPQAPIVMGYTSVGPEVKFKGVFHPIIISPDRIEELGVISQARDGLTLGAGLSLDQVKDILADIVQKLPEEKTQTYRALLKHLRTLAGSQIRNMASLGGHIVSRHLDSDLNPLLAVGNCTLNLLSKDGERRIPLSEEFLRKCPEADLKPQEVLVSVNIPWSRKWEFVSAFRQAQRQQNALAIVNSGMRVLFREGGGVIEELSILYGGVGSTIISAKNSCQRLIGRPWNEGMLDTRCRLVLDEVTLAASAPGGKVEFKRTLIISFLFKFYLEVSQGLKREDPGHSPSLAGNHESALDDLHSKHPWRTLTHQNVDPAQLPQDPIGRPIMHLSGIKHATGEAIYCDDMPAVDRELFLTFVTSSRAHAKIVSIDLSEALSLPGVVDIITADHLQEANTFGTETFLATDEVHCVGHLVCAVIADSETRAKQAAKQVKVVYQDLAPLILTIEEAIQHKSFFKSERKLECGNVDEAFKIVDQILEGEIHIGGQEHFYMETQSMLVVPKGEDGEIDIYVSTQFPKYIQDIVAATLKLSANKVMCHVRRVGGAFGGKVGKTSILAAITAFAASKHGRAVRCILERGEDMLITGGRHPYLGKYKAGFMNEGRILALDVEHYCNGGCSLDESLWVIEMGLLKLDNAYKFPNLRCRGWACRTNLPSNTALRGFGFPQAGLVTEACITEVAIKCGLSPEQVRTINMYKHVDTTHYKQEFSAKALSECWRECMAKCSYFERKAAIGKFNAENSWKKRGMAVIPLKFPVGIGSVAMGQAAALVHIYLDGSALVSHGGIEMGQGVHTKMIQVVSRELRMPMSSVHLRGTSTETVPNTNASGGSVVADLNGLAVKDACQTLLKRLEPIISKNPQGTWKDWAQTAFDQSISLSAVGYFRGYESNIDWEKGEGHPFEYFVFGAACSEVEINCLTGDHKNIRTNIVMDVGHSINPALDIGQVEGAFIQGMGLYTIEELSYSPQGTLYSRGPNQYKIPAICDIPTEMHISFLPPSEHSNTLYSSKGLGESGVFLGCSVFFAIHDAVKAARQERGISGPWKLNSPLTPEKIRMACEDKFTKMIPRDEPGSYVPCNIPV
notes: recombinant from E. coli TP1000 (codon-optimized plasmid pMAOX1co), Ni-NTA and Superdex 200 purified, chemically sulfurated, dimer (300 kDa)
B2: mAOX2 (Mus musculus) (protein)
chain: MPCPAQISDDLEFFVNGRKVTEKNVDPEVTLLAFLRKNLCLTGTKDACGTGGCGACTVMVSQHDPVCKKTRHFSVMACLVPLCSLHGAAVTTVEGVGSIKTRLHPVQERIAKSHGTQCGFCTPGMVMSIYTLLRNHPQPSEEQLMEALGGNLCRCTGYRPILESGRTFCMEPDGCPQKGTGQCCLDQKESDSSGSKSDICTKLFVKDEFQPLDPTQELIFPPELLRMAENPEKQTLTFYGERITWIAPGTLQELLVLKAKYPEAPLISGNTALGPAMKSQGHFYPVLLSPARIPDLRMVTKTSGGLTIGACCSLAQVKDILAESISELPQEKTQTYRALLKHLRSLAGQQIRNMASLGGHVISRHCYSDLNPILSVGNTTLNLLSEEGPRQIPLSGHFLAGLASADLKPEEILGSVYIPHSQKREFVSAFRQAQCHQNALPDVNAGMRVLFREGTDVIEELSIAYGGVGPTTVSAQRSCQQLLGRRWNALMLDEACRLLLDEVSLPGSALGGKVEFRRTLIVSLFFKFYLEVLQELKADQKLPPESTDSQRYPEIADRFLSSLGDFQVTLPRGVQTYQRVDSHQPLQDPVGRPIMHLSGLKHATGEAVFCDDIPRVDKELFMALVTSTRAHARIISIDSSEVLDLPGVVDVITAEDIPGNNGEEDDKLLAVDKVLCVGQVICAVVAETDVQAKRATEKIKITYEDLKPVIFTIEDAIKHNSFLCPEKKLEQGNIEEAFENVDQVAEGTVHVGGQEHFYMETQRVLVIPKTEDKELDMYVSTQDPAHVQKTVSSTLNIPISRITCHVKRVGGGFGGKVGRPAVFGAIAAVGAVKTGHPIRLVLDREDDMLITGGRHPLFAKYKVGFMNSGRIKALDIECYINGGCTLDDSELVTEFLVLKLENAYKIRNLRLRGRACMTNLPSNTAFRGFGFPQGALVTESCITAVAAKCGLPPEKIREKNMYKTVDKTIYKQAFNPDPLIRCWNECLDKSSFHIRRTRVDEFNKKSYWKKRGIAIVPMKFSVGFAATSYHQAAALVHIYTDGSVLVAHGGNELGQGIHTKMLQVASRELKIPLSYLHICETSTTTVPNTIATAASVGADVNGRAVQNACQILLKRLEPVIKKNPEGTWRDWIEAAFEKRISLSATGYFRGYKAFMDWEKGEGDPFPYYVYGAACSEVEIDCLTGAHKKIRTDIVMDACCSLNPAIDIGQIEGAFIQGMGLYTTEELLYSPEGVLYSRSPDKYKIPTVTDVPEQFNVSLLPSSQTPLTLYSSKGLGESGMFLGSSVFFAIVDAVAAARRQRDIAEDFTVKSPATPEWVRMACADRFTDMIPRDDPKTFKPWSIPIA
notes: recombinant from E. coli TP1000 (codon-optimized plasmid pMAOX2co), Ni-NTA and Superdex 200 purified, chemically sulfurated, dimer (300 kDa)
B3: mAOX3 (Mus musculus) (protein)
chain: MSPSKESDELIFFVNGKKVTERNADPEVNLLFYLRKVIRLTGTKYGCGGGDCGACTVMISRYDPISKRISHFSATACLVPICSLHGAAVTTVEGIGSTKTRIHPVQERIAKGHGTQCGFCTPGMVMSIYTLLRNHPEPSTEQIMETLGGNLCRCTGYRPIVESAKSFCPSSTCCQMNGEGKCCLDEEKNEPERKNSVCTKLYEKKEFQPLDPTQELIFPPELMRMAEESQNTVLTFRGERTTWIAPGTLNDLLELKMKHPSAPLVIGNTYLGLHMKFTDVSYPIIISPARILELFVVTNTKQGLTLGAGLSLTQVKNVLSDVVSRLPKEKTQIYCALLKQLKTLAGQQIRNVASLGGHIISRLPTSDLNPILGIGNCILNVASTEGIQQIPLNDHFLAGVPDAILKPEQVLISVFVPRSSKWEFVSAFRQAPRQQNAFATVNAGMKVVFKEDTNTITDLGILYGGIGATVISADKSCRQLIGRCWDEEMLDDAGKMICEEVSLLMAAPGGMEEYRKTLAISFLFMFYLDVLKQLKTRDPHKYPDISQKLLHILEDFPLTMPYGMQSFQDVDFQQPLQDPIGRPIMHQSGIKHATGEAVFCDDMSVLPGELFLAVVTSSKSHAKIISLDASEALASLGVVDVVTARDVPGDNGREEESLYAQDEVICVGQIVCAVAADSYAHAQQAAKKVKIVYQDIEPMIVTVQDALQYESFIGPERKLEQGNVEEAFQCADQILEGEVHLGGQEHFYMETQSVRVVPKGEDKEMDIYVSSQDAAFTQEMVARTLGIPKNRINCHVKRVGGAFGGKASKPGLLASVAAVAAQKTGRPIRFILERRDDMLITGGRHPLLGKYKIGFMNNGKIKAADIQLYINGGCTPDDSELVIEYALLKLENAYKIPNLRVRGRVCKTNLPSNTAFRGFGFPQGAFVTETCMSAVAAKCRLPPEKVRELNMYRTIDRTIHNQEFDPTNLLQCWEACVENSSYYNRKKAVDEFNQQRFWKKRGIAIIPMKFSVGFPKTFYYQAAALVQIYTDGSVLVAHGGVELGQGINTKMIQVASRELKIPMSYIHLDEMSTVTVPNTVTTGASTGADVNGRAVQNACQILMKRLEPIIKQNPSGTWEEWVKEAFVQSISLSATGYFRGYQADMDWEKGEGDIFPYFVFGAACSEVEIDCLTGAHKNIRTDIVMDGSFSINPAVDIGQIEGAFVQGLGLYTLEELKYSPEGVLYTRGPHQYKIASVTDIPEEFHVSLLTPTPNPKAIYSSKGLGEAGTFLGCSVFFAIAAAVAAAREERGLSPIWAINSPATAEVIRMACEDQFTNLVPQTDSKCCKPWSIPVA
notes: recombinant from E. coli TP1000 (plasmid pMMA1), Ni-NTA and Superdex 200 purified, chemically sulfurated, dimer (300 kDa)
B4: mAOX4 (Mus musculus) (protein)
chain: MPSVSESDELIFFVNGKKVIEKNPDPEKNLLFYTRKVLNLTGTKYSCGTGGCGACTVMVSRYNPKTRKIHHYPATACLVPICWLHGAAITTVEGVGSIKKRVHPVQERLAKCHGTQCGFCSPGMVMSIYTLLRNHPEPTPDQITEALGGNLCRCTGYRPIVESGKTFSQKSTVCQMKGSGKCCMDPDEKCLESREKKMCTKLYNEDEFQPFDPSQEPIFPPELIRMAEDPNKRRLTFQGKRTTWIIPVTLNDLLELKASYPEAPLVMGNTTVGPGIKFNDEFYPVFISPLGVPELNLMDTTNNGVTIGAGYSLAQLKDTLDFLVSEQPKEKTKTFHALQKHLRTLAGPQIRNMATLGGHTASRPNFSDLNPILAAGNATINVVSREGKDRQLPLNGPFLEKLPEADLKPEEVILSIFIPYTAQWQFVSGLRLAQRQENAFAIVNAGMSVEFEEGTNTIKDLKMFFGSVAPTVVSASQTCKQLIGRQWDDQMLSDACQLVLQEIRIPPDAEGGMVEYRRTLIISLLFKFYLKVQRWLNEMDPQKFPDIPGKFVSALDDFPIETPQGIQMFQCVDPKQPQKDPVGHPIMHQSGIKHATGEAIFIDDMPPIDQELCLAVVTSTRAHAKITSLDVSEALACPGVVDVITAEDVPGENDHNGEILYAQSEVICVGQIICTVAADTYIHAKEAAKRVKIAYDDIEPTIITIEEALEHNSFLSPEKKIEQGNVDYAFKHVDQIVEGEIHVEGQEHFYMETQTILAIPQTEDKEMVLHLGTQFPTHVQEFVSAALNVPRSRIACHMKRAGGAFGGKVTKPALLGAVCAVAANKTGRPIRFILERSDDMLITAGRHPLLGKYKIGFMNNGEIRAADVEYYTNGGCTPDESELVIEFVVLKSENTYHIPNFRCRGRACKTNLPSNTAFRGFGFPQATVVVEAYIAAVASKCNLLPEEVREINMYKKTSKTAYKQTFNPEPLRRCWKECLEKSSFFARKKAAEEFNGNNYWKKRGLAVVPMKFSVAVPIAFYNQAAALVHIFLDGSVLLTHGGCELGQGLHTKMIQVASRELNVPKSYVHFSETSTTTVPNSAFTAGSMGADINGKAVQNACQILMDRLRPIIRKNPKGKWEEWIKMAFEESISLSATGYFKGYQTNMDWKKEEGDPYPYYVYGAACSEVEVDCLTGAHKLLRTDIFVDAAFSINPALDIGQVEGAFIQGMGFYTTEELKYSPKGVLYSRGPEDYKIPTITEIPEEFYVTLVHSRNPIAIYSSKGLGEAGMFLGSSVLFAIYDAVTTARKERGLSDIFPLNSPATPEVIRMACTDQFTEMIPRDDPSTFTPWSIHVS
notes: recombinant from E. coli TP1000 (plasmid pMAOX4), Ni-NTA and Superdex 200 purified, chemically sulfurated, dimer (300 kDa)

How the values were obtained:
Assay in all cases: purified protein
Details in all cases: 100 μM DCPIP as electron acceptor, 50 mM Tris-HCl, 1 mM EDTA, pH 8.0, 37°C, corrected to 100% Mo saturation
purified protein [1] = substrate: c1ccc2c(c1)cnc1ccccc12
purified protein [2] = substrate: COc1ccccc1C=O; assay type: biochemical, Mus musculus
purified protein [3] = substrate: c1ncc2[nH]cnc2n1; assay type: biochemical, Mus musculus
purified protein [4] = substrate: CC=O; assay type: biochemical, Mus musculus
purified protein [5] = substrate: O=Cc1ccccc1; assay type: biochemical, Mus musculus
purified protein [6] = substrate: c1ccc2cnncc2c1; assay type: biochemical, Mus musculus
purified protein [7] = substrate: O=Cc1ccccc1O; assay type: biochemical, Mus musculus
purified protein [8] = substrate: CCCCC=O; assay type: biochemical, Mus musculus

Protein	Km (purified protein [1]) [µM]	kcat (purified protein [1]) [s⁻¹]	Km (purified protein [2]) [µM]	kcat (purified protein [2]) [s⁻¹]	Km (purified protein [3]) [µM]	kcat (purified protein [3]) [s⁻¹]	Km (purified protein [4]) [µM]	Km (purified protein [5]) [µM]	kcat (purified protein [5]) [s⁻¹]	Km (purified protein [6]) [µM]	kcat (purified protein [6]) [s⁻¹]	kcat/Km (purified protein [6]) [M⁻¹ s⁻¹]	Km (purified protein [7]) [µM]	kcat (purified protein [7]) [s⁻¹]	kcat/Km (purified protein [7]) [M⁻¹ s⁻¹]	kcat/Km (purified protein [5]) [M⁻¹ s⁻¹]	Km (purified protein [8]) [µM]	kcat (purified protein [8]) [s⁻¹]	kcat/Km (purified protein [8]) [M⁻¹ s⁻¹]
B1	2.5 ± 1.1	2.013 ± 0.277	6.6 ± 1.5	6.885 ± 0.362	9028 ± 971	7.147 ± 0.29	18000												
B2	1.9 ± 0.3	1.962 ± 0.0817			298.4														
B3	10.8 ± 1.8	2.353 ± 0.0917			3181 ± 334	7.862 ± 0.298		0.8 ± 0.1	2.512 ± 0.06										
B4					12344			2.2 ± 0.2	1.52 ± 0.0383	8.3 ± 0.9	5.51 ± 0.142	665000	13.2 ± 2.4	3.42 ± 0.112	260000	693000	48.3 ± 8.7	2.8 ± 0.22	58300
